Reference: patent US20210283212A1 (RA PHARMACEUTICALS, published 2021)
Starred links: 1 amine or outer side, 2 acyl side, 3 side chain; linkers in the order of their positions; H or OH if unused. Positions of bridges follow the written chain, without caps; N, C: chain ends. Non-standard residues stand in square brackets, D forms with d. Primed or numbered codes have the meaning given here. No end group written: not given here. Trp(7-aza) = N[C@@H](Cc1c[nH]c2ncccc12)C(=O)O; mXylyl(4) = bridging moiety between residues; NMePhe(4-F) = CN[C@@H](Cc1ccc(F)cc1)C(=O)O; pXylyl = bridging moiety between residues; mXylylene = c1cc(C[*:1])cc(C[*:2])c1; oXylylene = c1ccc(C[*:2])c(C[*:1])c1; Chg = N[C@H](C(=O)O)C1CCCCC1; Phg = N[C@H](C(=O)O)c1ccccc1; Tle = CC(C)(C)[C@H](N)C(=O)O; NMeS = CN[C@@H](CO)C(=O)O; NMeA = CN[C@@H](C)C(=O)O; Nva = CCC[C@H](N)C(=O)O; Sar = CNCC(=O)O

B1: R3049 (peptide)
peptide: Ac-[Nva]C[Phg]T[Trp(7-aza)]EY[NMeS]HC[Nva]-NH2
modifications: linker 2-10 via oXylylene
SMILES: CCC[C@H](NC(=O)[C@@H]1CSCc2ccccc2CSC[C@H](NC(=O)[C@H](CCC)NC(C)=O)C(=O)N[C@@H](c2ccccc2)C(=O)N[C@@H]([C@@H](C)O)C(=O)N[C@@H](Cc2c[nH]c3ncccc23)C(=O)N[C@@H](CCC(=O)O)C(=O)N[C@@H](Cc2ccc(O)cc2)C(=O)N(C)[C@@H](CO)C(=O)N[C@@H](Cc2c[nH]cn2)C(=O)N1)C(N)=O
B2: R3005 (peptide)
peptide: Ac-[Nva]CY[Trp(7-aza)][Sar][Tle][Nva][Trp(7-aza)]EYP[Phg]P-NH2
SMILES: CCC[C@H](NC(C)=O)C(=O)N[C@@H](CS)C(=O)N[C@@H](Cc1ccc(O)cc1)C(=O)N[C@@H](Cc1c[nH]c2ncccc12)C(=O)N(C)CC(=O)N[C@H](C(=O)N[C@@H](CCC)C(=O)N[C@@H](Cc1c[nH]c2ncccc12)C(=O)N[C@@H](CCC(=O)O)C(=O)N[C@@H](Cc1ccc(O)cc1)C(=O)N1CCC[C@H]1C(=O)N[C@H](C(=O)N1CCC[C@H]1C(N)=O)c1ccccc1)C(C)(C)C
B3: R3004 (peptide)
peptide: Ac-[Nva]CYNN[Tle]E[Trp(7-aza)]EYP[Phg][Tle]-NH2
SMILES: CCC[C@H](NC(C)=O)C(=O)N[C@@H](CS)C(=O)N[C@@H](Cc1ccc(O)cc1)C(=O)N[C@@H](CC(N)=O)C(=O)N[C@@H](CC(N)=O)C(=O)N[C@H](C(=O)N[C@@H](CCC(=O)O)C(=O)N[C@@H](Cc1c[nH]c2ncccc12)C(=O)N[C@@H](CCC(=O)O)C(=O)N[C@@H](Cc1ccc(O)cc1)C(=O)N1CCC[C@H]1C(=O)N[C@H](C(=O)N[C@H](C(N)=O)C(C)(C)C)c1ccccc1)C(C)(C)C
B4: R3003 (peptide)
peptide: Ac-[Nva]CYEN[Tle]Y[Trp(7-aza)]EYP[Phg]P-NH2
SMILES: CCC[C@H](NC(C)=O)C(=O)N[C@@H](CS)C(=O)N[C@@H](Cc1ccc(O)cc1)C(=O)N[C@@H](CCC(=O)O)C(=O)N[C@@H](CC(N)=O)C(=O)N[C@H](C(=O)N[C@@H](Cc1ccc(O)cc1)C(=O)N[C@@H](Cc1c[nH]c2ncccc12)C(=O)N[C@@H](CCC(=O)O)C(=O)N[C@@H](Cc1ccc(O)cc1)C(=O)N1CCC[C@H]1C(=O)N[C@H](C(=O)N1CCC[C@H]1C(N)=O)c1ccccc1)C(C)(C)C
B5: R3053 (peptide)
peptide: [Nva]CCN[Tle][Phg]C[Tle][NMeS]C[Tle]-NH2
modifications: linker (positions not given here) via mXylylene; also: mXylyl bicyclo: linked cysteines not given here
B6: R3006 (peptide)
peptide: Ac-YEN[Tle]Y[Trp(7-aza)]EY[Sar][Nva][NMeS]-NH2
SMILES: CCC[C@H](NC(=O)CN(C)C(=O)[C@H](Cc1ccc(O)cc1)NC(=O)[C@H](CCC(=O)O)NC(=O)[C@H](Cc1c[nH]c2ncccc12)NC(=O)[C@H](Cc1ccc(O)cc1)NC(=O)[C@@H](NC(=O)[C@H](CC(N)=O)NC(=O)[C@H](CCC(=O)O)NC(=O)[C@H](Cc1ccc(O)cc1)NC(C)=O)C(C)(C)C)C(=O)N(C)[C@@H](CO)C(N)=O
B7: R3057 (peptide)
peptide: MCVERFCD[Tle]Y[Trp(7-aza)]EYP[Phg][Nva]-NH2
modifications: linker 2-7 via mXylyl(4); not fully specified; printed as [mXylyl(2,7)]M-C-V-E-R-F-C-D-Tbg-Y-azaTrp-E-Y-P-Phg-Nvl-NH2

target: human C5 protein (human, UniProt P01031 19-673; P01031 678-1676); assay: cell-based or functional assay

Row | Binder | Avg. IC50, human hemolysis assay
1 | B1 | > 3100 nM
2 | Ac-[Nva]C[Phg]T[Trp(7-aza)]EYPHC[Nva]-NH2 (linker 2-10 via pXylyl) [R3065] | 394 nM
3 | B2 | 66.7 nM
4 | Ac-[Nva]C[Phg]T[Trp(7-aza)]EA[NMeS]HC[Nva]-NH2 (linker 2-10 via mXylyl(4)) [R3036] | > 50000 nM
5 | Ac-[Nva]C[Phg]T[Trp(7-aza)]EY[NMeS]HCA-NH2 (linker 2-10 via mXylyl(4)) [R3039] | 240 nM
6 | Ac-[Nva]C[Phg]T[Trp(7-aza)]EY[NMeA]HC[Nva]-NH2 (linker 2-10 via mXylyl(4)) [R3037] | 276 nM
7 | [Nva]CY[NMeS][Phg][NMePhe(4-F)][NMeS]H[NMePhe(4-F)][Sar]C-NH2 (linker 2-11 via mXylyl(4)) [R3051] | > 100000 nM
8 | Ac-[Nva]C[Phg]T[Trp(7-aza)]EY[NMeS]AC[Nva]-NH2 (linker 2-10 via mXylyl(4)) [R3038] | 140 nM
9 | Ac-[Nva]C[Phg]T[Trp(7-aza)]EY[NMeS]HC[Nva]-NH2 (bridge 2-10) [R3042] | > 100000 nM
10 | Ac-[Nva]C[Phg]T[Trp(7-aza)]EY[NMeS]HC[Nva]P[Nva] (bridge 2-10) [R3040] | > 100000 nM
11 | Ac-[Nva]C[Phg]T[Trp(7-aza)]AY[NMeS]HC[Nva]-NH2 (linker 2-10 via mXylyl(4)) [R3035] | > 50000 nM
12 | B3 | 53.5 nM
13 | B4 | 13.9 nM
14 | Ac-[Nva]C[Chg]T[Trp(7-aza)]EY[NMeS]HC[Nva]-NH2 (linker 2-10 via pXylyl) [R3058] | > 10000 nM
15 | [Nva]CY[Tle][Phg]N[Sar]LC[Phg][NMeA]-NH2 (linker 2-9 via mXylyl(4)) [R3052] | > 100000 nM
16 | B5 | > 100000 nM
17 | Ac-[Nva]C[Phg]T[Trp(7-aza)]EY[NMeS]HC[Nva]-NH2 (linker 2-10 via pXylyl) [R3050] | 42.9 nM
18 | B6 | 267 nM
19 | B7 | 12.4 nM
